According to patent US20220402995A1 (TOSOH, published 2022):

Each binder was assayed against T1, VLP2 (virus-like particles of AAV2) (AAV2, UniProt P03135 1-735; P03135 1-598; P03135 1-533) (assay: ELISA on VLP2; binding after pH 10.0 41.2°C 15 min / untreated).
T1 construct: Empty AAV2 capsid; background says about 60 protein molecules, VP1:VP2:VP3 = 1:1:10; Immobilised on the ELISA plate
T1 sequence (P03135 whole entry, chain 1 of 3): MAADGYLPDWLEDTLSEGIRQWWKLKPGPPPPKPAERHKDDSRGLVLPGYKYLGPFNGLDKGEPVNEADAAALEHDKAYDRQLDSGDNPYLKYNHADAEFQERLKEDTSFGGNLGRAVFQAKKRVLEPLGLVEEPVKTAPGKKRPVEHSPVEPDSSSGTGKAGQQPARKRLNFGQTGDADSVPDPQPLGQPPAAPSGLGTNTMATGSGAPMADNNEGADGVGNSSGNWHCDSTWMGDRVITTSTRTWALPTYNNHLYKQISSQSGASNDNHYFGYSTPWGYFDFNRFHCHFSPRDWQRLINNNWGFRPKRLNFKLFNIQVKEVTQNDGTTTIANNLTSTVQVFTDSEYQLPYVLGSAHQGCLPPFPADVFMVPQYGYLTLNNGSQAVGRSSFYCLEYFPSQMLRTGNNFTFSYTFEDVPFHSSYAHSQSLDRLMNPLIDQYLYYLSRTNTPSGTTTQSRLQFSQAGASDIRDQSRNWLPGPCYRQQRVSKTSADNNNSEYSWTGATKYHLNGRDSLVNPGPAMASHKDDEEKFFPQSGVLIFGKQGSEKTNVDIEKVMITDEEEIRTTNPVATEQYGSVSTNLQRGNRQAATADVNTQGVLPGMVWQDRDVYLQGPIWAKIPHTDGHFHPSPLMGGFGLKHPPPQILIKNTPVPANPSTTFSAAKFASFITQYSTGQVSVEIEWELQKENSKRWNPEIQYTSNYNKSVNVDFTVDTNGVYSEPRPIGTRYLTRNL
T1 sequence (P03135 139-735, tags left off, chain 2 of 3): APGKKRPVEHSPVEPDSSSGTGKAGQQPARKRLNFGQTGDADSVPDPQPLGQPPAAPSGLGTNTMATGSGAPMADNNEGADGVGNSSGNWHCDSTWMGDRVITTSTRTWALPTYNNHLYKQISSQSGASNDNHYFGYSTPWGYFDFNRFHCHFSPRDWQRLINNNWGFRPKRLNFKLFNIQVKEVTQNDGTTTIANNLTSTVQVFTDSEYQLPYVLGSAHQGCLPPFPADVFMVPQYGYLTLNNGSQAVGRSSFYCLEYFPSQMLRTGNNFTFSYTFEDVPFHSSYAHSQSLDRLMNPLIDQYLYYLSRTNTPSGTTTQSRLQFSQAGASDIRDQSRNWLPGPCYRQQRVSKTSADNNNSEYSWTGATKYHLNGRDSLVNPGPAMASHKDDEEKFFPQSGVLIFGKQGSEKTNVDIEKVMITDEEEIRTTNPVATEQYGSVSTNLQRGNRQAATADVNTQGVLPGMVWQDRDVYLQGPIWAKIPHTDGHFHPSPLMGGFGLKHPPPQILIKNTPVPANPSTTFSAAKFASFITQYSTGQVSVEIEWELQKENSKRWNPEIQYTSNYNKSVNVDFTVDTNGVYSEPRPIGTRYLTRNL
T1 sequence (P03135 203-735, chain 3 of 3): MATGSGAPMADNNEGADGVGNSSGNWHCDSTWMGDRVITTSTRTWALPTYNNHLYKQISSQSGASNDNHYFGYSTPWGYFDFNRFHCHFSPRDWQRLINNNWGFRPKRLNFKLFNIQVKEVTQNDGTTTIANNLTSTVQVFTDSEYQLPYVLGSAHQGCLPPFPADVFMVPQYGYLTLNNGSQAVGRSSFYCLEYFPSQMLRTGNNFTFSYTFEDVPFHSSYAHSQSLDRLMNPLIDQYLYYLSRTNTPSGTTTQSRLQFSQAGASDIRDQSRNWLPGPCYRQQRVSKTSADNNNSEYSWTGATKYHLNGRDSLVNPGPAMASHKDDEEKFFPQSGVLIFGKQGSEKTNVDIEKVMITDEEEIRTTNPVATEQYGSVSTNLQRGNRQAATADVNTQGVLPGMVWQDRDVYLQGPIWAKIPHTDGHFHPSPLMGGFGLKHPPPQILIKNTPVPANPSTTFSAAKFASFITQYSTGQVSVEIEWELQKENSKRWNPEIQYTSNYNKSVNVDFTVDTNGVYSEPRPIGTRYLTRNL

Binder	Residual activity [%]
AAV-binding protein No. 109 (AVR8g + Glu360Lys) (receptor) MGSAGESDQITLPKNEVQLNAYVLQEPPKGETCTYDWQLITHPRDYSGEMKGEHSQILKLSNLTPGLYEFKVIVEGQNAHSEGYVNVTVEPEPRKNRPPIAIVSPQFQEISLPTTSTVIDGSQSTDDDKIVQYHWEELKGPLREEKISEDTAILKLSKLVPGNYTFRLTVVDSDGATDSTTANLTVNKAVDHHHHHH	40.2
AAV-binding protein No. 122 (AVR8g + Gln386Arg) (receptor) MGSAGESDQITLPKNEVQLNAYVLQEPPKGETCTYDWQLITHPRDYSGEMEGEHSQILKLSNLTPGLYEFKVIVEGRNAHSEGYVNVTVEPEPRKNRPPIAIVSPQFQEISLPTTSTVIDGSQSTDDDKIVQYHWEELKGPLREEKISEDTAILKLSKLVPGNYTFRLTVVDSDGATDSTTANLTVNKAVDHHHHHH	34.9
AAV-binding protein No. 126 (AVR8g + Lys448Glu) (receptor) MGSAGESDQITLPKNEVQLNAYVLQEPPKGETCTYDWQLITHPRDYSGEMEGEHSQILKLSNLTPGLYEFKVIVEGQNAHSEGYVNVTVEPEPRKNRPPIAIVSPQFQEISLPTTSTVIDGSQSTDDDKIVQYHWEELEGPLREEKISEDTAILKLSKLVPGNYTFRLTVVDSDGATDSTTANLTVNKAVDHHHHHH	34.5
AAV-binding protein No. 119 (AVR8g + Phe379Ser) (receptor) MGSAGESDQITLPKNEVQLNAYVLQEPPKGETCTYDWQLITHPRDYSGEMEGEHSQILKLSNLTPGLYESKVIVEGQNAHSEGYVNVTVEPEPRKNRPPIAIVSPQFQEISLPTTSTVIDGSQSTDDDKIVQYHWEELKGPLREEKISEDTAILKLSKLVPGNYTFRLTVVDSDGATDSTTANLTVNKAVDHHHHHH	24.3
AAV-binding protein No. 127 (AVR8g + Asp483Asn) (receptor) MGSAGESDQITLPKNEVQLNAYVLQEPPKGETCTYDWQLITHPRDYSGEMEGEHSQILKLSNLTPGLYEFKVIVEGQNAHSEGYVNVTVEPEPRKNRPPIAIVSPQFQEISLPTTSTVIDGSQSTDDDKIVQYHWEELKGPLREEKISEDTAILKLSKLVPGNYTFRLTVVDSNGATDSTTANLTVNKAVDHHHHHH	23.3
AAV-binding protein No. 112 (AVR8g + Ser364Leu) (receptor) MGSAGESDQITLPKNEVQLNAYVLQEPPKGETCTYDWQLITHPRDYSGEMEGEHLQILKLSNLTPGLYEFKVIVEGQNAHSEGYVNVTVEPEPRKNRPPIAIVSPQFQEISLPTTSTVIDGSQSTDDDKIVQYHWEELKGPLREEKISEDTAILKLSKLVPGNYTFRLTVVDSDGATDSTTANLTVNKAVDHHHHHH	45.3
AAV-binding protein No. 114 (AVR8g + Leu372Pro) (receptor) MGSAGESDQITLPKNEVQLNAYVLQEPPKGETCTYDWQLITHPRDYSGEMEGEHSQILKLSNPTPGLYEFKVIVEGQNAHSEGYVNVTVEPEPRKNRPPIAIVSPQFQEISLPTTSTVIDGSQSTDDDKIVQYHWEELKGPLREEKISEDTAILKLSKLVPGNYTFRLTVVDSDGATDSTTANLTVNKAVDHHHHHH	91.6
AAV-binding protein No. 118 (AVR8g + Glu378Gly) (receptor) MGSAGESDQITLPKNEVQLNAYVLQEPPKGETCTYDWQLITHPRDYSGEMEGEHSQILKLSNLTPGLYGFKVIVEGQNAHSEGYVNVTVEPEPRKNRPPIAIVSPQFQEISLPTTSTVIDGSQSTDDDKIVQYHWEELKGPLREEKISEDTAILKLSKLVPGNYTFRLTVVDSDGATDSTTANLTVNKAVDHHHHHH	66.7
AAV-binding protein No. 131 (AVR8g + Asn324Ser, Gly357Cys) (receptor) MGSAGESDQITLPKSEVQLNAYVLQEPPKGETCTYDWQLITHPRDYSCEMEGEHSQILKLSNLTPGLYEFKVIVEGQNAHSEGYVNVTVEPEPRKNRPPIAIVSPQFQEISLPTTSTVIDGSQSTDDDKIVQYHWEELKGPLREEKISEDTAILKLSKLVPGNYTFRLTVVDSDGATDSTTANLTVNKAVDHHHHHH	70.3
AAV-binding protein No. 116 (AVR8g + Thr373Ala) (receptor) MGSAGESDQITLPKNEVQLNAYVLQEPPKGETCTYDWQLITHPRDYSGEMEGEHSQILKLSNLAPGLYEFKVIVEGQNAHSEGYVNVTVEPEPRKNRPPIAIVSPQFQEISLPTTSTVIDGSQSTDDDKIVQYHWEELKGPLREEKISEDTAILKLSKLVPGNYTFRLTVVDSDGATDSTTANLTVNKAVDHHHHHH	57.8
AAV-binding protein No. 125 (AVR8g + His443Leu) (receptor) MGSAGESDQITLPKNEVQLNAYVLQEPPKGETCTYDWQLITHPRDYSGEMEGEHSQILKLSNLTPGLYEFKVIVEGQNAHSEGYVNVTVEPEPRKNRPPIAIVSPQFQEISLPTTSTVIDGSQSTDDDKIVQYLWEELKGPLREEKISEDTAILKLSKLVPGNYTFRLTVVDSDGATDSTTANLTVNKAVDHHHHHH	36.5
AAV-binding protein No. 130 (AVR8g + Lys323Arg, Glu384Val) (receptor) MGSAGESDQITLPRNEVQLNAYVLQEPPKGETCTYDWQLITHPRDYSGEMEGEHSQILKLSNLTPGLYEFKVIVVGQNAHSEGYVNVTVEPEPRKNRPPIAIVSPQFQEISLPTTSTVIDGSQSTDDDKIVQYHWEELKGPLREEKISEDTAILKLSKLVPGNYTFRLTVVDSDGATDSTTANLTVNKAVDHHHHHH	63.1
AAV-binding protein No. 121 (AVR8g + Val381Ala) (receptor) MGSAGESDQITLPKNEVQLNAYVLQEPPKGETCTYDWQLITHPRDYSGEMEGEHSQILKLSNLTPGLYEFKAIVEGQNAHSEGYVNVTVEPEPRKNRPPIAIVSPQFQEISLPTTSTVIDGSQSTDDDKIVQYHWEELKGPLREEKISEDTAILKLSKLVPGNYTFRLTVVDSDGATDSTTANLTVNKAVDHHHHHH	89.9
AAV-binding protein No. 123 (AVR8g + Tyr393Cys) (receptor) MGSAGESDQITLPKNEVQLNAYVLQEPPKGETCTYDWQLITHPRDYSGEMEGEHSQILKLSNLTPGLYEFKVIVEGQNAHSEGCVNVTVEPEPRKNRPPIAIVSPQFQEISLPTTSTVIDGSQSTDDDKIVQYHWEELKGPLREEKISEDTAILKLSKLVPGNYTFRLTVVDSDGATDSTTANLTVNKAVDHHHHHH	60.5
AAV-binding protein No. 111 (AVR8g + Lys(Glu)362Gly) (receptor, Glu362 of AVR8g replaced by Gly) MGSAGESDQITLPKNEVQLNAYVLQEPPKGETCTYDWQLITHPRDYSGEMEGGHSQILKLSNLTPGLYEFKVIVEGQNAHSEGYVNVTVEPEPRKNRPPIAIVSPQFQEISLPTTSTVIDGSQSTDDDKIVQYHWEELKGPLREEKISEDTAILKLSKLVPGNYTFRLTVVDSDGATDSTTANLTVNKAVDHHHHHH	41.1
AAV-binding protein No. 110 (AVR8g + Glu360Val) (receptor) MGSAGESDQITLPKNEVQLNAYVLQEPPKGETCTYDWQLITHPRDYSGEMVGEHSQILKLSNLTPGLYEFKVIVEGQNAHSEGYVNVTVEPEPRKNRPPIAIVSPQFQEISLPTTSTVIDGSQSTDDDKIVQYHWEELKGPLREEKISEDTAILKLSKLVPGNYTFRLTVVDSDGATDSTTANLTVNKAVDHHHHHH	33.3
AAV-binding protein No. 117 (AVR8g + Leu376Pro) (receptor) MGSAGESDQITLPKNEVQLNAYVLQEPPKGETCTYDWQLITHPRDYSGEMEGEHSQILKLSNLTPGPYEFKVIVEGQNAHSEGYVNVTVEPEPRKNRPPIAIVSPQFQEISLPTTSTVIDGSQSTDDDKIVQYHWEELKGPLREEKISEDTAILKLSKLVPGNYTFRLTVVDSDGATDSTTANLTVNKAVDHHHHHH	76.7
AAV-binding protein No. 129 (AVR8g + Ala313Ser, Glu378Gly) (receptor) MGSSGESDQITLPKNEVQLNAYVLQEPPKGETCTYDWQLITHPRDYSGEMEGEHSQILKLSNLTPGLYGFKVIVEGQNAHSEGYVNVTVEPEPRKNRPPIAIVSPQFQEISLPTTSTVIDGSQSTDDDKIVQYHWEELKGPLREEKISEDTAILKLSKLVPGNYTFRLTVVDSDGATDSTTANLTVNKAVDHHHHHH	67.5
AAV-binding protein No. 124 (AVR8g + Gln441Arg) (receptor) MGSAGESDQITLPKNEVQLNAYVLQEPPKGETCTYDWQLITHPRDYSGEMEGEHSQILKLSNLTPGLYEFKVIVEGQNAHSEGYVNVTVEPEPRKNRPPIAIVSPQFQEISLPTTSTVIDGSQSTDDDKIVRYHWEELKGPLREEKISEDTAILKLSKLVPGNYTFRLTVVDSDGATDSTTANLTVNKAVDHHHHHH	25.2
AAV-binding protein No. 115 (AVR8g + Leu372Gln) (receptor) MGSAGESDQITLPKNEVQLNAYVLQEPPKGETCTYDWQLITHPRDYSGEMEGEHSQILKLSNQTPGLYEFKVIVEGQNAHSEGYVNVTVEPEPRKNRPPIAIVSPQFQEISLPTTSTVIDGSQSTDDDKIVQYHWEELKGPLREEKISEDTAILKLSKLVPGNYTFRLTVVDSDGATDSTTANLTVNKAVDHHHHHH	72.8
AAV-binding protein No. 128 (AVR8g + Ser312Pro, Pro374Leu) (receptor) MGPAGESDQITLPKNEVQLNAYVLQEPPKGETCTYDWQLITHPRDYSGEMEGEHSQILKLSNLTLGLYEFKVIVEGQNAHSEGYVNVTVEPEPRKNRPPIAIVSPQFQEISLPTTSTVIDGSQSTDDDKIVQYHWEELKGPLREEKISEDTAILKLSKLVPGNYTFRLTVVDSDGATDSTTANLTVNKAVDHHHHHH	74.9
AAV-binding protein No. 113 (AVR8g + Ile366Thr) (receptor) MGSAGESDQITLPKNEVQLNAYVLQEPPKGETCTYDWQLITHPRDYSGEMEGEHSQTLKLSNLTPGLYEFKVIVEGQNAHSEGYVNVTVEPEPRKNRPPIAIVSPQFQEISLPTTSTVIDGSQSTDDDKIVQYHWEELKGPLREEKISEDTAILKLSKLVPGNYTFRLTVVDSDGATDSTTANLTVNKAVDHHHHHH	41.4
AAV-binding protein No. 120 (AVR8g + Lys380Glu) (receptor) MGSAGESDQITLPKNEVQLNAYVLQEPPKGETCTYDWQLITHPRDYSGEMEGEHSQILKLSNLTPGLYEFEVIVEGQNAHSEGYVNVTVEPEPRKNRPPIAIVSPQFQEISLPTTSTVIDGSQSTDDDKIVQYHWEELKGPLREEKISEDTAILKLSKLVPGNYTFRLTVVDSDGATDSTTANLTVNKAVDHHHHHH	59.5
